Key:
Experiment in all cases: two-hybrid library CCmax;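 also: natural log of median RNA to DNA barcode read ratio; higher means stronger binding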
[1] = target: T1, 4H1594-AA
T1 chain: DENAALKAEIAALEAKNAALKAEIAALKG

[2] = target: T2, 4H1629-AA; conditions: mean of both orientations
T2 chain: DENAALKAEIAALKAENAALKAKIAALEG

[3] = target: T3, 4H1845-AA; conditions: mean of both orientations
T3 chain: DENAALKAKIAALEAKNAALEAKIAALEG

[4] = target: T4, 4H1874-AA; conditions: mean of both orientations
T4 chain: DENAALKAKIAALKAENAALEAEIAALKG

[5] = target: T5, 4H2198-AA; conditions: mean of both orientations
T5 chain: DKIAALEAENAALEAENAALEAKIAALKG

[6] = target: T6, 4H2553-AA; conditions: mean of both orientations
T6 chain: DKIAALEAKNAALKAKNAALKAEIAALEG

[7] = target: T7, 4H2611-AA; conditions: mean of both orientations
T7 chain: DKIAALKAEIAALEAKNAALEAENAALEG

[8] = target: T8, 4H2620-AA; conditions: mean of both orientations
T8 chain: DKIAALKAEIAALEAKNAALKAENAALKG

[9] = target: T9, 4H2648-AA; conditions: mean of both orientations
T9 chain: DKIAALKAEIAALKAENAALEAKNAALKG

[10] = target: T10, 4H2907-AA; conditions: mean of both orientations
T10 chain: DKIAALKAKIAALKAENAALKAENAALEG

[11] = target: T11, 4H3056-AA; conditions: mean of both orientations
T11 chain: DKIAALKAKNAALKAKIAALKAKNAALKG

[12] = target: T12, 4H3133-AA; conditions: mean of both orientations
T12 chain: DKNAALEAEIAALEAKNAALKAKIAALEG

[13] = target: T13, 4H3162-AA; conditions: mean of both orientations
T13 chain: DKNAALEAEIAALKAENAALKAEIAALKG

[14] = target: T14, 4H32-AA; conditions: mean of both orientations
T14 chain: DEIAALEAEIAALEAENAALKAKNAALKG

[15] = target: T15, 4H3378-AA; conditions: mean of both orientations
T15 chain: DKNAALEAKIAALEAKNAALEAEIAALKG

[16] = target: T16, 4H340-AA; conditions: mean of both orientations
T16 chain: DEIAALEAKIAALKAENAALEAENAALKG

[17] = target: T17, 4H3413-AA; conditions: mean of both orientations
T17 chain: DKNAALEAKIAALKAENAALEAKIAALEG

[18] = target: T18, 4H3588-AA; conditions: mean of both orientations
T18 chain: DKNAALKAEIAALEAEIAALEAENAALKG

[19] = target: T19, 4H3606-AA; conditions: mean of both orientations
T19 chain: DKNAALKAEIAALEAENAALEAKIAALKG

[20] = target: T20, 4H3631-AA; conditions: mean of both orientations
T20 chain: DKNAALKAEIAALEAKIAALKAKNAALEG

[21] = target: T21, 4H3697-AA; conditions: mean of both orientations
T21 chain: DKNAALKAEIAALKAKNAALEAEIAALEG

[22] = target: T22, 4H3718-AA
T22 chain: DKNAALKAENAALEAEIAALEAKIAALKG

[23] = target: T23, 4H384-AA; conditions: mean of both orientations
T23 chain: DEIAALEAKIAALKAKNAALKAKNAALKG

[24] = target: T24, 4H3865-AA; conditions: mean of both orientations
T24 chain: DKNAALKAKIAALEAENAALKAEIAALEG

[25] = target: T25, 4H697-AA; conditions: mean of both orientations
T25 chain: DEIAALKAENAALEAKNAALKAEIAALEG

[26] = target: T26, 4H982-AA; conditions: mean of both orientations
T26 chain: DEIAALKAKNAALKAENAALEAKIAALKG

- interaction score [1]: 1.19
- interaction score [2]: -0.822
- interaction score [3]: -0.968
- interaction score [4]: 2.24
- interaction score [5]: -1.61
- interaction score [6]: -1.6
- interaction score [7]: -1.7
- interaction score [8]: -1.5
- interaction score [9]: -0.627
- interaction score [10]: -1.36
- interaction score [11]: -2.01
- interaction score [12]: -2.2
- interaction score [13]: 0.0257
- interaction score [14]: -1.19
- interaction score [15]: -0.189
- interaction score [16]: 0.908
- interaction score [17]: 1.73
- interaction score [18]: -1.26
- interaction score [19]: 1.96
- interaction score [20]: -1.31
- interaction score [21]: 0.415
- interaction score [22]: -1.13
- interaction score [23]: -1.64
- interaction score [24]: 1.15
- interaction score [25]: -2.03
- interaction score [26]: 1.3
Binder: DENAALKAEIAALEAKNAALKAEIAALKG [4H1594-AA]

Reference: article PMC10397247
